The numbers were not newly measured in patent publication US12246031B2, “Compositions and methods for tumor immunotherapy” (CHECKMATE PHARMACEUTICALS, INC., priority 2018, dated 2025), which cites them from elsewhere.

The data set deals with PD-L1 (Homo sapiens, UniProt Q9NZQ7). The note with it: anti-PD-L1 antibody in clinical development.
Chain of PD-L1 (Q9NZQ7 19-290): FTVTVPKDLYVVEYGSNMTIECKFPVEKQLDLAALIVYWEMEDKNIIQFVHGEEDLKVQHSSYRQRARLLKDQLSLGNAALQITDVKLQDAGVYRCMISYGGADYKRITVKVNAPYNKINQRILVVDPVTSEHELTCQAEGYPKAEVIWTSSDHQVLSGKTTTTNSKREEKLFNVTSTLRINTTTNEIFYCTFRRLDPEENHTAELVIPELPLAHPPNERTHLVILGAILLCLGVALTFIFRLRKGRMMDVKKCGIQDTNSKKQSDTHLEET

As for “MPDL3280A: anti-PD-L1 antibody under development in human clinical trials (Genetech/Roche)”, the Kd is 400 pM.

The Kd is a measure of binding affinity in units of concentration.
